Results published in US20160200830A1 (NANJING LEGEND BIOTECH, published 2016).
Numbering of substitutions follows the chain as printed. Values belong to the binder of their own block, whether it stands above or below them.

Columns and labels:
human transferrin [1] = molecular target: T1, human transferrin (human, UniProt P02787 20-698); test: phage display panning and phage ELISA
T1 construct: Immobilized on a CM5 chip by amine coupling (SPR) or coated on a plate (phage ELISA)
Protocol: The llama immune phage display library was panned against transferrin that was conjugated to M-280 beads (Invitrogen). Approximately 3×10¹¹ phages were added to the beads and incubated at 37° C. for 2 hours for antigen binding. After disposal of unbound phages, the beads were washed six times with phosphate buffered saline supplemented with 0.05% Tween 20 (PBST) for round one, and the washes were increased by one for each additional round. Phages were eluted by 10 min incubation with 100 μl 100 mM triethylamine, and the eluate was subsequently neutralized with 200 μl 1 M Tris-HCl (pH 7.5). Phages were amplified as described above, but on a smaller scale. After two rounds of panning, eluted phages were used to infect exponentially growing E. coli TG1. Individual colonies were used in phage enzyme-linked immunosorbent assay (ELISA).
For phage ELISA, a 96-well microliter plate was coated overnight with 2 μg/ml human transferrin and then blocked with 4% […] phosphate buffered saline (MPBS) for 2 hours at 37° C. Phage from individual clones were pre-blocked with 4% MPBS overnight, added to the pre-blocked wells and incubated for 1 hour. Phage ELISA was performed using the GE Healthcare Detection Module Recombinant Phage Antibody System (GE Healthcare, Uppsala, Sweden) and positive phage clones were sequenced.

human transferrin [2] = molecular target: T1, human transferrin; test: SPR, transferrin immobilized, sdAb as analyte
monkey transferrin = monkey transferrin (monkey); test: SPR, transferrin immobilized, sdAb as analyte
human transferrin [3] = molecular target: T1, human transferrin; test: SPR, Biacore T200, transferrin immobilized on CM5 chip, sdAb as analyte
Protocol: Experiments were performed using a BIAcore T200 optical sensor platform and research grade CM5 sensor chips (GE Healthcare). Human transferrin was immobilized on the sensor chip surface by standard amine coupling. All experiments were carried out in HEPES buffer [10 mM HEPES (pH 7.4), 150 mM NaCl, 3.4 mM EDTA, 0.005% Tween 20] at 25° C. Antibodies were injected at serial dilutions ranging from 0.25 nM to 16 nM at a flow rate of 30 μl/min unless otherwise indicated. The amount of bound analyte after subtraction from the blank control surface is shown as relative response units (RU). The double referenced sensorgrams from each injection series were analyzed for binding kinetics using BIA evaluation software (GE Healthcare). Dissociation constants (KDs) were calculated from the on- and off-rates (kₒₙ and koff, respectively), as determined by global fitting of the experimental data to a 1:1 Langmuir binding model (Chi²<1).

T1 sequence (P02787 20-698 limits assumed): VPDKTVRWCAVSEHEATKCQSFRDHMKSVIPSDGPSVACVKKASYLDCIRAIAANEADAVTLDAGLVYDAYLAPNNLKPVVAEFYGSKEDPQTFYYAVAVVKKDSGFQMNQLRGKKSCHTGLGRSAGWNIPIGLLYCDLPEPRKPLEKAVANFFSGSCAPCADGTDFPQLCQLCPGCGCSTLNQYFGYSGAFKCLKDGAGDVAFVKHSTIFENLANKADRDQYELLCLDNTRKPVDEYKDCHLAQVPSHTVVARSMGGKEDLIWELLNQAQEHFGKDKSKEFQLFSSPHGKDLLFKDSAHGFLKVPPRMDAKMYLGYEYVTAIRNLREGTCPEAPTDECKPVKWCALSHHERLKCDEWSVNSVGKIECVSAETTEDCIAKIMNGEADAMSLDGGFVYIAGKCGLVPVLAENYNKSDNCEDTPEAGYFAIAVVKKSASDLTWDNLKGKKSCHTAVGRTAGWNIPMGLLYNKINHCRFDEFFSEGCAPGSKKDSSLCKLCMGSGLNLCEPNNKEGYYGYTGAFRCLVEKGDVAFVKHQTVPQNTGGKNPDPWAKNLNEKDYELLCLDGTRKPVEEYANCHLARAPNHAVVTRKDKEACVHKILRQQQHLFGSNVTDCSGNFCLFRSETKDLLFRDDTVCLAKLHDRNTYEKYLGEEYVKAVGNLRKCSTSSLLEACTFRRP

B1: sdAb A69476 (VHH)
VHH: QVKLEESGGGLVQPGGSLRLSCAASGNVFTIDAMGWYRQAPGKEREVVVGMTNGGKTNYADSVKGRFTISRDNAKNTVSLQMNSLKPEDTAVYYCYARSKLIATINNPYDYWGQGTQVTVSS
- binding result (human transferrin [1]): binds

B3: sdAb A69441 (VHH)
VHH: QVKLEESGGGLVQPGGSLRLSCAASGSIFSIKVMGWYRQAPGKQRELVADITSGGSTDYSDSVKGRFTISRDNAKNTVYLQMNSLKPEDTAVYYCNADLGCSGAGSCPDYWGQGTQVTVSS
- binding result (human transferrin [1]): binds

B5: sdAb A60401 (VHH)
VHH: QVKLEESGGGLVQAGGSLRLSCEASGNVFTIAAMGWFRQAPGKERELVAGITTGGSTNYADSVKGRFTISRDNAQNTMYLQMNSLRPEDTAAYSCNAVTKWAARVGGSAEYEYWGQGTQVTVSS
notes: Llama sdAb, made in E. coli periplasm, His-tagged, for SPR; not shown: C-terminal histidine tag added by vector pSJF2H
- Kd (human transferrin [3]): 0.0671 nM
- koff (human transferrin [3]): 6.22e-05 s⁻¹
- kon (human transferrin [3]): 927000 M⁻¹ s⁻¹

B6: sdAb A13376 (VHH)
VHH: B5 VHH with E23A, G35A, F37Y, A92V, S94F
- binding result (human transferrin [1]): binds

B7: sdAb A60219 (VHH)
VHH: QVQLVESGGGLVQAGGSLRLSCVASGSGFGINGVIWYRQAPGKQRELVALIKSDGYTNYRESVKGRFTISRDDAKNTVWLQMNALEPEDTGVYYCKTPGVPFGQGTQVTVSS
notes: Llama sdAb, made in E. coli periplasm, His-tagged, for SPR; also called A602019; not shown: C-terminal histidine tag added by vector pSJF2H
- Kd (human transferrin [3]): 0.0131 nM
- koff (human transferrin [3]): 0.000674 s⁻¹
- kon (human transferrin [3]): 5.14e+07 M⁻¹ s⁻¹

B8: sdAb A13154 (VHH)
VHH: B7 VHH with A14P, N83S
- binding result (human transferrin [1]): binds

B9: sdAb A13355 (VHH)
VHH: B7 VHH with Q3K, V5E, K64R
- binding result (human transferrin [1]): binds

B10: sdAb A12659 (VHH)
VHH: B7 VHH with Q1E, S7C, K75R
- binding result (human transferrin [1]): binds

B11: sdAb A13152 (VHH)
VHH: B7 VHH with S25P
- binding result (human transferrin [1]): binds

Continued, values first:

- Kd (human transferrin [2]): 5.76 nM
- koff (human transferrin [2]): 0.000642 s⁻¹
- kon (human transferrin [2]): 111000 M⁻¹ s⁻¹
- Kd (monkey transferrin): 2.4 nM
- koff (monkey transferrin): 0.000593 s⁻¹
- kon (monkey transferrin): 247000 M⁻¹ s⁻¹
B2: sdAb A69433 (VHH)
VHH: QVKLEESGGGLVQAGGSLRLSCVASGNVFGIDAVGWYRQAPGKQRELVAATTTSGSSTNYADSVKGRFTISRDIAKNTVYLQMDSLKPEDTAVYYCYARPKQATLIRDDYWGQGTQVTVSS
notes: as for B5

- Kd (human transferrin [2]): 1.03 nM
- koff (human transferrin [2]): 0.000209 s⁻¹
- kon (human transferrin [2]): 203000 M⁻¹ s⁻¹
- Kd (monkey transferrin): 0.25 nM
- koff (monkey transferrin): 7.58e-05 s⁻¹
- kon (monkey transferrin): 304000 M⁻¹ s⁻¹
B4: sdAb A69447 (VHH)
VHH: QVKLEESGGGSVQAGGSLRLSCTGSGSIFPLNDMGWYRQAPGKQRELVATITRGGTTNYADSVKGRFTISRDSNAKNTVYLQMNSLKVEDTAVYYCNMDNRVGGSYWGQGTQVTVSS
notes: as for B5

- binding result (human transferrin [1]): binds
B12: sdAb A12666 (VHH)
VHH: B7 VHH with Q3K, V5E, I31V

- binding result (human transferrin [1]): binds
B13: sdAb A12692 (VHH)
VHH: B7 VHH with Q1E, S7C

- binding result (human transferrin [1]): binds
B14: sdAb A12690 (VHH)
VHH: B7 VHH with A14P, Q44R

- Kd (human transferrin [2]): 2.03 nM
- koff (human transferrin [2]): 0.000695 s⁻¹
- kon (human transferrin [2]): 342000 M⁻¹ s⁻¹
- Kd (monkey transferrin): 1.12 nM
- koff (monkey transferrin): 0.000529 s⁻¹
- kon (monkey transferrin): 471000 M⁻¹ s⁻¹
B15: sdAb A69449 (VHH)
VHH: QVQLVESGGGVVQAGGSLRLSCVASGSVFSIDAMGWYRQAPGNQRELVAAMTNAGSTNYADSVKGRFTISRDNAENTVYLQMNSLKPEDTAVYYCNARSKLIARINNPYEYWGQGTQVTVSS
notes: Llama sdAb, made in E. coli periplasm, His-tagged, for SPR; also called A60449; not shown: C-terminal histidine tag added by vector pSJF2H
